From patent US7645449B2, “Sensitizing cells for apoptosis by selectively blocking cytokines” (priority 2003, dated 2010)

What was measured:
[1] = system: cFlip/FLAME-1 in MDA-MB-231 cells; test: Immunoblot of Bcl-XL and cFlip/FLAME-1 in MDA-MB-231 cells; type: cell-based, human; settings: following IL-4 treatment
Description: The observation that prostate and breast tumor cells treated with IL-4 display a reduced sensitivity to death induced by CD95 and chemotherapeutic drugs led us to investigate whether this cytokine would influence the expression of apoptosis regulatory genes. […] Therefore, IL-4-mediated increased survival in bladder, prostate and breast cancer cells is associated with upregulation of anti-apoptotic proteins.
Cell pellets were washed twice with cold PBS and lysed on ice for 30 minutes with 1% NP40 lysis buffer (20 mM Tris-HCl pH 7.2, 200 mM NaCl, 1% NP40) in the presence of 1 mM phenylmethylsulphonyl fluoride (PMSF) and 2 μg/ml each of aprotinin, leupeptin and pepstatin. Cell debris was removed by centrifugation at 13,000 rpm for 10 minutes at 4° C. Lysate concentration was determined using the Bio-Rad protein assay (Bio-Rad Laboratories, Richmond, Calif.). Aliquots of cell extracts containing 30 μg of total protein were resolved on 10% or 12% SDS-PAGE and transferred to a Hybond-C extra nitrocellulose membrane (Amersham Pharmacia Biotech, Piscataway, N.J.). […]

[2] = system: primary breast carcinoma cells; test: Bcl-XL expression and chemosensitivity of primary breast carcinoma cells cultivated with or without IL-4; type: cell-based, human; settings: 6 days of in vitro culture in the presence of IL-4
Excerpt: To confirm that IL-4-induced upregulation of Bcl-XL is able to protect epithelial breast cells from apoptosis, freshly isolated normal breast epithelial cells were exposed to IL-4 and analyzed Bcl-XL expression and sensitivity to a panel of chemotherapeutic drugs commonly used to treat breast cancer. […] To confirm that in vivo exposure to IL-4 is responsible for high Bcl-XL expression and resistance to chemotherapy in breast cancer, Bcl-XL expression and sensitivity to apoptosis of primary breast carcinoma cells cultivated in the presence or absence of IL-4 was measured Freshly isolated breast cancer cells expressed high levels of Bcl-XL and were scarcely sensitive to chemotherapeutic drugs (FIGS. 14C and D). […] Thus, in vivo IL-4 production promotes the survival of breast cancer cells. […]
Cell pellets were washed twice with cold PBS and lysed on ice for 30 minutes with 1% NP40 lysis buffer (20 mM Tris-HCl pH 7.2, 200 mM NaCl, 1% NP40) in the presence of 1 mM phenylmethylsulphonyl fluoride (PMSF) and 2 μg/ml each of aprotinin, leupeptin and pepstatin. […] Lysate concentration was determined using the Bio-Rad protein assay (Bio-Rad Laboratories, Richmond, Calif.). […]

B1: IL-4: human recombinant IL-4 (protein, UniProt P05112 25-153, looked up)
Interleukin-4: HKCDITLQEIIKTLNSLTEQKTLCTELTVTDIFAASKNTTEKETFCRAATVLRQFYSHHEKDTRCLGATAQQFHRHKQLIRFLKRLDRNLWGLAGLNSCPVKEANQSTLENFLERLKTIMREKYSKCSS
cFlip/FLAME-1 level in MDA-MB-231 cells [1]: only a modest increase | Bcl-XL levels in primary breast cancer cells [2]: maintained high Bcl-XL levels | sensitivity of primary breast cancer cells to chemotherapeutic drugs [2]: low sensitivity to chemotherapeutic drugs
